Target: NS3h (helicase domain of HCV NS3) (Hepatitis C virus, Con 1b replicon …, UniProt Q9WMX2 1192-1657)
Experiment: stopped-flow fluorescence

NS3h (helicase domain of HCV NS3), sequence (Q9WMX2 1192-1657): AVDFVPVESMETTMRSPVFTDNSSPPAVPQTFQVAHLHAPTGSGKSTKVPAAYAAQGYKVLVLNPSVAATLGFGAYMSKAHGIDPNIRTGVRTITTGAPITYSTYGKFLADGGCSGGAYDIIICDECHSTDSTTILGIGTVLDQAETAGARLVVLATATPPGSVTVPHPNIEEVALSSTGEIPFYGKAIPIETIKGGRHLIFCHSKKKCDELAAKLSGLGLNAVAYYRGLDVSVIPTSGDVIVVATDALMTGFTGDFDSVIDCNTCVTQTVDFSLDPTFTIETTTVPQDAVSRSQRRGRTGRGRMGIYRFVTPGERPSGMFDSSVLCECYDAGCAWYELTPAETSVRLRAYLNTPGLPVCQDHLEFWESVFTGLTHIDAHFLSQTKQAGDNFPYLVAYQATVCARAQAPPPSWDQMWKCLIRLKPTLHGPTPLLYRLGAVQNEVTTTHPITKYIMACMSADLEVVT

B1: 37:22-mer partial duplex (dsDNA)
DNA 1: GACTGACGCTAGGCTGACAGGATTTTTTTTTTTTTTT
DNA 2: TCCTGTCAGCCTAGCGTCAGTC
binding result: binds

Source: publication PMC2853022
